Data set [1] has as its system BpsA, single module non-ribosomal peptide synthetase of Streptomyces lavendulae ATCC 11924, purified recombinant 6His-tagged protein (apo form).
The target of data set [2] is PP1183, putative phosphopantetheinyl transferase of Pseudomonas putida KT2440 (Pseudomonas putida KT2440). Description: cell-based or functional assay.
Data set [3] has as its target PcpS, phosphopantetheinyl transferase of Pseudomonas aeruginosa PAO1 (Pseudomonas aeruginosa PAO1). The data set is described as follows: cell-based or functional assay.
For data set [4], the target named is Sfp, phosphopantetheinyl transferase of Bacillus subtilis subsp. spizizenii ATCC6633 (Bacillus subtilis subsp. spizizenii ATCC6633). The data set is described as follows: cell-based or functional assay.
The subject of data set [5] is E. coli harbouring an activating PPTase. Description: In vivo pigment synthesis activity of BpsA derivatives relative to wild type BpsA. Type of data set: cell-based. The following applies: for Relative activity (in vivo pigment synthesis relative to wild type BpsA): E. coli, supernatant A590. The source says:
A detailed description of the method used for generation of mBpsA derivatives is given in Section 4.15. Briefly, a plasmid containing bpsA lacking its native T-domain (pBPSA3) was created. This plasmid contained restriction enzyme sites which were subsequently used to introduce foreign T-domain sequence. Foreign T-domains were then amplified from the chromosomal DNA of their host organisms and introduced into pBPSA3 to generate mBpsA derivatives which contained T-domains from foreign NRPS proteins in place of the native T-domain. Only the final embodiment of the T-domain swapping platform is described in this application. This embodiment is the result of rational in-silico design as well as trial and error, which are not described. Using this final platform, five different mBpsA derivatives were generated and subsequently assessed for in vivo pigment synthesis capacity in E. coli harbouring an activating PPTase. Table 3.1 gives a summary of the mBpsA derivatives generated as well as their in vivo pigment synthesis activities relative to wild type BpsA. The derivation of in vivo pigment synthesis activity was as described in 4.10.
For second tier screening, up to 45 improved clones, along with a positive and negative control, were stored as duplicate glycerol stocks in a 96wp. From this plate duplicate overnight cultures were established in LB supplemented with 0.4% glucose and appropriate antibiotics. […] Overnight cultures were grown for 16-20 h (37° C. 200 rpm) before transfer of 20 μl of each culture into a fresh well containing 130 μL LB supplemented with 115 mM L-Gln, 0.6 mM IPTG and appropriate antibiotics. Assay plates set up in this fashion contained duplicate cultures for each clone from two separate overnights. Assay plates were then wrapped in foil and incubated for 6-24 h (18° C., 200 rpm), depending on activity of improved clones. After incubation cells were collected at the corner of each well by centrifugation and OD 590 values determined using a microplate reader. Assays were repeated at least twice before determination of clones for sequence analysis.
In vivo pigment synthesis efficiencies for recombinant BpsA proteins described in Section 3.2 were derived from three separate assays. This was necessary due to the fact that pigment synthesis of wild type BpsA saturate before activity of mBpsA derivatives was detectable. Replicate cultures for determination of in vivo pigment synthesis activity were established from overnight starter cultures in a 96 wp as described in Section 4.9.3 The values presented are derived as follows: quadruplicate values for WT BpsA and oBpsA (mutant with reduced activity) were determined after 3 h, at which point pigment production was not saturated for WT. A separate quadruplicate assay was then run to obtain a value for slEntF by comparison to oBpsA after 12 h. Quadruplicate values for slPsT and slPvdD2 were then obtained in a separate assay by comparison to slEntF after 12 h.

Where “and” joins values, the source holds several entries; their conditions need not be identical. Identical values can stand only once.

With “PcpS, phosphopantetheinyl transferase of Pseudomonas aeruginosa PAO1”, in data set [1], the Km (BpsA as variable substrate), BpsA coupled indigoidine assay amounted to 6.5 µM; the kcat (BpsA as variable substrate), BpsA coupled indigoidine assay was determined as 0.687 s⁻¹; the kcat/Km (BpsA as variable substrate), BpsA coupled indigoidine assay is 107000 M⁻¹ s⁻¹.
Consider “The peptide carrier protein of the Microcysitis aeruginosa NRPS/PKS MycG (mPCP), purified recombinant His6 tagged”, for which the results for the IC50 (carrier protein competition with BpsA for limiting CoA) in data set [2], in data set [3] and in data set [4] were 180 nM, 990 nM and 150 nM, respectively. Also, the kcat/Km (estimate derived from IC50) (Min^-1 · µM^-1) in data set [2] is 6.3; in data set [3] it was 5.55; in data set [4] it was 3.33.
Consider “The peptide carrier protein of the first module of the Pseudomonas aeruginosa NRPS PvdD (pPCP), puri”, for which the figures for the IC50 (carrier protein competition with BpsA for limiting CoA) in data set [2], in data set [3] and in data set [4] were 280 nM, 560 nM and 450 nM, respectively. For the same molecule, the kcat/Km (estimate derived from IC50) (Min^-1 · µM^-1) is 4.1 in data set [2], 9.84 in data set [3] and 1.11 in data set [4].
“The aryl carrier protein from Nostoc punctiforme protein HetM (npArCP), purified recombinant His6 tagged”: the IC50 (carrier protein competition with BpsA for limiting CoA) amounted to 6000 nM in data set [2], 8460 nM in data set [3] and 140 nM in data set [4]. In addition, the kcat/Km (estimate derived from IC50) (Min^-1 · µM^-1) in data set [2] is 0.19; in data set [3], 0.65; in data set [4], 3.51.
For the molecule “slDhbF: mBpsA with T-domain from first module of dhbF of B. subtilis; SEQ ID NO: 13”, the “Relative activity (in vivo pigment synthesis relative to wild type BpsA)” value (from here on “Relative activity”) in data set [5] was 0%.

B1: slEntF: mBpsA with T-domain from entF gene of E. coli W3110; SEQ ID NO: 11 (protein)
chain: MTLQETSVLEPTLQGTTTLPGLLAQRVAEHPEAIAVAYRDDKLTFRELASRSAALADYLEHLGVSADDCVGLFVEPSIDLMVGAWGILNAGAAYLPLSPEYPEDRLRYMIENSETKIILAQQRLVSRLRELAPKDVTIVTLRESEAFVRPEGTEAPAARSARPDTLAYVIYTSGSTGKPKGVMIEHRSIVNQLGWLRETYAIDRSKVILQKTPMSFDAAQWEILSPANGATVVMGAPGVYADPEGLIETIVKHNVTTLQCVPTLLQGLIDTEKFPECVSLQQIFSGGEALSRLLAIQTTQEMPGRALINVYGPTETTINSSSFPVDPADLDEGPQSISIGSPVHGTTYHILDKETLKPVGVGEIGELYIGGIQLARGYLHRDDLTAERFLEIELEEGAEPVRLYKTGDLGQWNNDGTVQFAGRADNQVKLRGYRVELDEISLAIENHDWVRNAAVIVKNDGRTGFQNLIACIELSEKEAALMDQGNHGSHHASKKSKLQVKAQLSNPGLRDDAELAARPAFDLEGAEPTPEQRARVFARKTYRFYEGGAVTQADLLGLLGATVTAGYSRKAADLAPAELGQILRWFGQYISEERLLPKYGYASPGALYATQMYFELEGVGGLKPGYYYYQPVRHQLVLISEREATGKATAQIHFIGKKSGIEPVYKNNILEVLEIETGHMVGLFEQILPAYGLDIHDRAYEPAVKDLLDVADEDYYLGTFELVPHAGARDDQAEVYVQTHGGKVAGLPEGQYRYENGELTRFSDDIVLKKHVIAINQSVYQAASFGISVYSRAEEEWLKYITLGKKLQHLMMNGLNLGFMSSGYSSKTGNPLPASRRMDAVLGANGVDSAPMYFFVGGRISDEQIGHEGMREDSVHMRGPAELIRDDLVSFLPDYMIPNRVVVFDRLPLSANGKIDVKALAASDQVNAELVERPGRAPKAGSETIIAAAFSSLLGCDVQDADADFFALGGHSLLAMKLAAQLSRQVARQVTPGQVMVASTVAKLATIIDREVAQESSRFVRLHAETGKARPVICWPGLGGYPMNLRSLAGEIGLGRSFYGVQSYGINEGETPYETITEMAKKDIEALKEIQPAGPYTLWGYSFGARVAFETAYQLEQAGEKVDNLFLIAPGSPKVRAENGKVWGREASFANRGYTTILFSVFTGTISGPDLDRCLETVTDEASFAEFISELKGIDVDLARRIISVVGQTYEFEYSFHELAERTLQAPISIFKAVGDDYSFLENSSGYSAEPPTVIDLDADHYSLLREDIGELVKHIRYLLGE
Regarding B1, the “Relative activity” value in data set [5] is 5.14% and 5.14 +/− 0.28%.

B2: slPvdD1: mBpsA with T-domain from first module of pvdD of P. aeruginosa PAO1; SEQ ID NO: 5 (protein)
chain: MTLQETSVLEPTLQGTTTLPGLLAQRVAEHPEAIAVAYRDDKLTFRELASRSAALADYLEHLGVSADDCVGLFVEPSIDLMVGAWGILNAGAAYLPLSPEYPEDRLRYMIENSETKIILAQQRLVSRLRELAPKDVTIVTLRESEAFVRPEGTEAPAARSARPDTLAYVIYTSGSTGKPKGVMIEHRSIVNQLGWLRETYAIDRSKVILQKTPMSFDAAQWEILSPANGATVVMGAPGVYADPEGLIETIVKHNVTTLQCVPTLLQGLIDTEKFPECVSLQQIFSGGEALSRLLAIQTTQEMPGRALINVYGPTETTINSSSFPVDPADLDEGPQSISIGSPVHGTTYHILDKETLKPVGVGEIGELYIGGIQLARGYLHRDDLTAERFLEIELEEGAEPVRLYKTGDLGQWNNDGTVQFAGRADNQVKLRGYRVELDEISLAIENHDWVRNAAVIVKNDGRTGFQNLIACIELSEKEAALMDQGNHGSHHASKKSKLQVKAQLSNPGLRDDAELAARPAFDLEGAEPTPEQRARVFARKTYRFYEGGAVTQADLLGLLGATVTAGYSRKAADLAPAELGQILRWFGQYISEERLLPKYGYASPGALYATQMYFELEGVGGLKPGYYYYQPVRHQLVLISEREATGKATAQIHFIGKKSGIEPVYKNNILEVLEIETGHMVGLFEQILPAYGLDIHDRAYEPAVKDLLDVADEDYYLGTFELVPHAGARDDQAEVYVQTHGGKVAGLPEGQYRYENGELTRFSDDIVLKKHVIAINQSVYQAASFGISVYSRAEEEWLKYITLGKKLQHLMMNGLNLGFMSSGYSSKTGNPLPASRRMDAVLGANGVDSAPMYFFVGGRISDEQIGHEGMREDSVHMRGPAELIRDDLVSFLPDYMIPNRVVVFDRLPLSANGKIDVKALAASDQVNAELVERPYRAPGSELEQRIAAIWSEILGVERVGLDDNFFELGGHSLLATRVISRVRQEQQLDASLKALFERPVLEAFAQGLEREVAQESSRFVRLHAETGKARPVICWPGLGGYPMNLRSLAGEIGLGRSFYGVQSYGINEGETPYETITEMAKKDIEALKEIQPAGPYTLWGYSFGARVAFETAYQLEQAGEKVDNLFLIAPGSPKVRAENGKVWGREASFANRGYTTILFSVFTGTISGPDLDRCLETVTDEASFAEFISELKGIDVDLARRIISVVGQTYEFEYSFHELAERTLQAPISIFKAVGDDYSFLENSSGYSAEPPTVIDLDADHYSLLREDIGELVKHIRYLLGE
Turning to B2, in data set [5] (E. coli with activating PPTase, pigment development agar or broth), the “In vivo pigment synthesis capacity (qualitative)” value is “completely inactive enzyme”. The “Relative activity” value in data set [5] worked out at 0%.
